Test results taken from patent US20260008818A1, “CYCLIC PEPTIDE OR SALT THEREOF, AND USES THEREOF” (FUJIFILM Corporation, priority 2023, published 2026).
Bridge positions count the residues as written; N and C are the ends. Ends that are not written are not given here. COCH2 = acetyl group that carries the bridge

Tests used:
[1] = target: T1, FGFR1 Protein, Human, Recombinant (His Tag) (Sino Biological, 10616-H08H) (human, UniProt P11362 22-376); test: SPR, peptide immobilized, 1 umol/L FGFR
T1 construct: bought reagent; not shown: His tag
T1 sequence (looked up): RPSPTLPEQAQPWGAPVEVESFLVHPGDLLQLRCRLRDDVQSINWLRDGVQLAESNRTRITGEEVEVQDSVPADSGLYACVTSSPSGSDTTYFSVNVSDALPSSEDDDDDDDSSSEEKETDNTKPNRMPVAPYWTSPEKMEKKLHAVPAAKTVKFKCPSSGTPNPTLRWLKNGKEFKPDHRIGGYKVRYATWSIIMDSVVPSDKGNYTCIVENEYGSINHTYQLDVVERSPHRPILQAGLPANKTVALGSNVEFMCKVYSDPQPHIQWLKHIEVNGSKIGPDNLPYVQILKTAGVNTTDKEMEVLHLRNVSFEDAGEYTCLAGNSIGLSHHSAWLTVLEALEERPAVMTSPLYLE
Protocol: (§1) A CM5 sensor chip (Cytiva, 29149603) was set in Biacore-T200 (manufactured by Cytiva) which is a surface plasmon resonance device, and an HBS-EP buffer (Cytiva, BR100826) was added as a running buffer at a flow rate of 10 μL/min to equilibrate the flow channel. Next, 70 μL of a mixed aqueous solution of 0.2 mol/L 1-(3-dimethylaminopropyl)-3-ethylcarbodiimide (EDC) and 0.05 mol/L N-hydroxysuccinimide (NHS) was added to activate the sensor chip. Then, a cyclic peptide prepared to 2 mg/mL in HBS-EP buffer was added thereto to perform immobilization at about 200 RU. Thereafter, the blocking treatment was performed with an ethanolamine solution. In addition, in another flow channel of the same sensor chip, blocking treatment was performed immediately after activation without […].
(§2) After various FGFRs (FGFR1 Protein, Human, Recombinant (His Tag) (Sino Biological, 10616-H08H), FGFR3 Protein, Human, Recombinant (ECD, His Tag) (Sino Biological, 16044-H08H), FGFR4 Protein, Human, Recombinant (His Tag) (Sino Biological, 10538-H08H)) diluted with HBS-EP to 1 μmol/L at 25° C. was added to each flow channel of the cyclic peptide-immobilized sensor chip prepared above, for 10 minutes, HBS-EP was allowed to flow as a running buffer for 30 minutes, and the binding of various FGFRs to the cyclic peptide was measured. […] The binding amount of the cyclic peptide was evaluated from the difference between the measured value of Biacore-T200 in the flow channel in which the cyclic peptide was immobilized and the measured value of Biacore-T200 in the flow channel in which the cyclic peptide was not immobilized, in a case where 1 μmol/L FGFR was allowed to flow.
(§3) The binding amount of FGFR evaluated above was normalized to the binding amount of FGFR molecules per one molecule of the cyclic peptide using the molecular weights of the cyclic peptide and FGFR, and the binding affinity to FGFR was evaluated according to the following evaluation criteria.

[2] = target: T2, FGFR3 Protein, Human, Recombinant (ECD, His Tag) (Sino Biological, 16044-H08H) (human, UniProt P22607 23-375); test: SPR, peptide immobilized, 1 umol/L FGFR
T2 construct: extracellular domain; bought reagent; not shown: His tag
T2 sequence (looked up): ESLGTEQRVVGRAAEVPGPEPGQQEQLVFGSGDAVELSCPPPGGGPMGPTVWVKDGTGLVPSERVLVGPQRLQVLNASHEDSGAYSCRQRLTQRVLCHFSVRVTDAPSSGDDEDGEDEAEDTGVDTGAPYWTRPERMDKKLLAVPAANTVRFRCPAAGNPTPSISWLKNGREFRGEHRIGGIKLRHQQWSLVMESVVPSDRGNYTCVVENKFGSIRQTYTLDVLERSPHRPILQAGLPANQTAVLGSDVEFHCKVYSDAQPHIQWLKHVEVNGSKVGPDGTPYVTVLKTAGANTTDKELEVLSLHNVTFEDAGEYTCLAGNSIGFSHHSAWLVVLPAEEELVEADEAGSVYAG
Protocol: as §1, §2, §3

[3] = target: T3, FGFR4 Protein, Human, Recombinant (His Tag) (Sino Biological, 10538-H08H) (human, UniProt P22455 22-369); test: SPR, peptide immobilized, 1 umol/L FGFR
T3 construct: bought reagent; not shown: His tag
T3 sequence (looked up): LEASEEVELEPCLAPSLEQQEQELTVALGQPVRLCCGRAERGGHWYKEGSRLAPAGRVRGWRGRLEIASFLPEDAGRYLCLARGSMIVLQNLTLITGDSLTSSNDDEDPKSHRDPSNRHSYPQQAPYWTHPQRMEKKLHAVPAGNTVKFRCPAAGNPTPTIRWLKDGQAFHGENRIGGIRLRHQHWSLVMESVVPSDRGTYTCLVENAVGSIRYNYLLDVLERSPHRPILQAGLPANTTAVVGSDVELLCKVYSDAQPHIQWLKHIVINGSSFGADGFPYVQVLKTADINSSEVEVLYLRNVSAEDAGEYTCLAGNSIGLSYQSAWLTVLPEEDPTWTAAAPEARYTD
Protocol: as §1, §2, §3

[4] = target: T4, Recombinant Human FGFR1 alpha (IIIc) Fc Chimera Protein, CF (R&D systems, 658-FR-050) (human, UniProt P11362 22-376); test: SPR, FGFR1-Fc immobilized, 10 nmol/L peptide
T4 construct: bought reagent; not shown: Fc of the bought chimera
T4 sequence (looked up): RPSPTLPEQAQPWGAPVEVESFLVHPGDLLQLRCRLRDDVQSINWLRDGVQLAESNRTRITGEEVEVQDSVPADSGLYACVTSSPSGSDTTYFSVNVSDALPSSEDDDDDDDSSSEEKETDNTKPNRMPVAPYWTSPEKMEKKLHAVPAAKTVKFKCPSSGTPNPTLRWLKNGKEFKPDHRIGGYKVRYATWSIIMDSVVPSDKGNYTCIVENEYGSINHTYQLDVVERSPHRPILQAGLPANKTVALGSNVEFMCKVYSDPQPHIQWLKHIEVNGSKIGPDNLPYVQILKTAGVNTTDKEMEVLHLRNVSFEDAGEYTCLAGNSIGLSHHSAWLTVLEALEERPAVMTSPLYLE
Protocol: A CM5 sensor chip (Cytiva, 29149603) was set in Biacore-T200 (manufactured by Cytiva) which is a surface plasmon resonance device, and an HBS-EP buffer (Cytiva, BR100826) was added as a running buffer at a flow rate of 10 μL/min to equilibrate the flow channel. Next, 70 μL of a mixed aqueous solution of 0.2 mol/L 1-(3-dimethylaminopropyl)-3-ethylcarbodiimide (EDC) and 0.05 mol/L N-hydroxysuccinimide (NHS) was added to activate the sensor chip. Then, Recombinant Human FGFR 1 alpha (IIIc) Fc Chimera Protein CF (R&D systems, 658-FR-050) prepared at 50 nmol/L in an Acetate 4.5 buffer (Cytiva, BR100350) was added thereto to perform immobilization at about 5000 RU. Thereafter, the blocking treatment was performed with an ethanolamine solution. In addition, in another flow channel of the same sensor chip, blocking treatment was performed immediately after activation without immobilizing FGFR.
A cyclic peptide diluted to 10 nmol/L using HBS-EP was added to each flow channel of the FGFR-immobilized sensor chip produced above at 25° C. for 10 minutes, then HBS-EP was allowed to flow as a running buffer for 30 minutes, and the binding of the cyclic peptide to FGFR was measured. Thereafter, a regeneration treatment of removing the bound cyclic peptide was performed by repeating the flow of a regeneration liquid in which sodium chloride powder was dissolved in Glysine 1.5 (Cytiva, BR100354) to a final concentration of 0.15 mol/L for 1 minute in each flow channel twice. The binding amount of the cyclic peptide was evaluated from the difference between the measured value of Biacore-T200 in the flow channel in which FGFR was immobilized and the measured value of Biacore-T200 in the flow channel in which FGFR was not immobilated, in a case where a 10 nmol/L cyclic peptide was allowed to flow.

binding amount (SPR, FGFR molecules bound per molecule of cyclic peptide at 1 umol/L FGFR) [1]: ≥ 0.05 moleculesoffgfr/onemoleculeofthecyclicpeptide
binding amount (SPR, FGFR molecules bound per molecule of cyclic peptide at 1 umol/L FGFR) [2]: 0.01 to 0.05 moleculesoffgfr/onemoleculeofthecyclicpeptide
binding amount (SPR, FGFR molecules bound per molecule of cyclic peptide at 1 umol/L FGFR) [3]: ≥ 0.05 moleculesoffgfr/onemoleculeofthecyclicpeptide
binding amount (SPR, cyclic peptide molecules bound per one molecule of FGFR at 10 nmol/L peptide) [4]: ≥ 0.7 moleculesofthecyclicpeptide/onemoleculeoffgfr
Binder: HCSYERLQFHGHEAPFRVK(COCH2)VKKK (thioether 2-19; also: acetyl defined on Orn side-chain amine, here on K, chemically synthesized) [SEQ ID NO: 382]
